Results as given in patent US20080220049A1 (published 2008).

B1: wild type fibronectin-based scaffold protein (tenth type III domain of human fibronectin) (other)
chain: VSDVPRDLEVVAATPTSLLISWDAPAVTVRYYRITYGETGGNSPVQEFTVPGSKSTATISGLKPGVDYTITGYAVTGRGDSPASSKPISINYRT
notes: E. coli produced with His6 tag; also called WT; 10Fn3
B2: E2 (designed binder)
chain: EVVAATPTSLLISWRHPHFPTRYYRITYGETGGNSPVQEFTVPLQPPTATISGLKPGVDYTITGYAVTDGPNDRLLNIPISINYRT
notes: 10Fn3 variant, residues 1-8 deleted
B3: F6 (designed binder)
chain: EVVAATPTSLLISWRHPHFPTRYYRITYGETGGNSPVQEFTVPLQPPTATISGLKPGVDYTITGYAVTVEQNGRVLMTPISTNYRT
notes: Del 1-8; assay tags not included; Framework 4 printed as ISTNYRT
B4: F5 (designed binder)
chain: EVVAATPTSLLISWRHPHFPTRYYRITYGETGGNSPVQEFTVPLQPPTATISGLRPGVDYTITGYAVTVERDGRELNIPISINYRT
notes: Del 1-8; assay tags not included
B5: D9 (designed binder)
chain: EVVAATPTSLLISWRHPHFPTRYYRITYGETGGNSPVQEFTVPLQPPTATISGLRPGVDYTITGYAVTEERNGRVLFTPISINYRT
notes: as for B4
B6: 3′E10 PR4 (designed binder)
chain: EVVAATPTSLLISWRHPHFPTRYYRITYGETGGNSPVQEFTVPLQPPTATISGLKPGVDYTITGYAVTAGHKDQELLTPISINYRT
B7: 2′Del F6 PR4 (designed binder)
chain: EVVAATPTSLLISWRHPHFPTRYYRITYGETGGNSPVQEFTVPLQPPTATISGLKPGVDYTITGYAVTLGWNDHELYIPISINYRT

Experiments:
[1] = molecular target: T1, full-length human KDR on cells (human, UniProt P35968 20-1356); test: flow cytometry on CHO KDR cells
T1 construct: whole, on cells; also called CHO KDR; CHO-KDR
T1 sequence (P35968 20-1356): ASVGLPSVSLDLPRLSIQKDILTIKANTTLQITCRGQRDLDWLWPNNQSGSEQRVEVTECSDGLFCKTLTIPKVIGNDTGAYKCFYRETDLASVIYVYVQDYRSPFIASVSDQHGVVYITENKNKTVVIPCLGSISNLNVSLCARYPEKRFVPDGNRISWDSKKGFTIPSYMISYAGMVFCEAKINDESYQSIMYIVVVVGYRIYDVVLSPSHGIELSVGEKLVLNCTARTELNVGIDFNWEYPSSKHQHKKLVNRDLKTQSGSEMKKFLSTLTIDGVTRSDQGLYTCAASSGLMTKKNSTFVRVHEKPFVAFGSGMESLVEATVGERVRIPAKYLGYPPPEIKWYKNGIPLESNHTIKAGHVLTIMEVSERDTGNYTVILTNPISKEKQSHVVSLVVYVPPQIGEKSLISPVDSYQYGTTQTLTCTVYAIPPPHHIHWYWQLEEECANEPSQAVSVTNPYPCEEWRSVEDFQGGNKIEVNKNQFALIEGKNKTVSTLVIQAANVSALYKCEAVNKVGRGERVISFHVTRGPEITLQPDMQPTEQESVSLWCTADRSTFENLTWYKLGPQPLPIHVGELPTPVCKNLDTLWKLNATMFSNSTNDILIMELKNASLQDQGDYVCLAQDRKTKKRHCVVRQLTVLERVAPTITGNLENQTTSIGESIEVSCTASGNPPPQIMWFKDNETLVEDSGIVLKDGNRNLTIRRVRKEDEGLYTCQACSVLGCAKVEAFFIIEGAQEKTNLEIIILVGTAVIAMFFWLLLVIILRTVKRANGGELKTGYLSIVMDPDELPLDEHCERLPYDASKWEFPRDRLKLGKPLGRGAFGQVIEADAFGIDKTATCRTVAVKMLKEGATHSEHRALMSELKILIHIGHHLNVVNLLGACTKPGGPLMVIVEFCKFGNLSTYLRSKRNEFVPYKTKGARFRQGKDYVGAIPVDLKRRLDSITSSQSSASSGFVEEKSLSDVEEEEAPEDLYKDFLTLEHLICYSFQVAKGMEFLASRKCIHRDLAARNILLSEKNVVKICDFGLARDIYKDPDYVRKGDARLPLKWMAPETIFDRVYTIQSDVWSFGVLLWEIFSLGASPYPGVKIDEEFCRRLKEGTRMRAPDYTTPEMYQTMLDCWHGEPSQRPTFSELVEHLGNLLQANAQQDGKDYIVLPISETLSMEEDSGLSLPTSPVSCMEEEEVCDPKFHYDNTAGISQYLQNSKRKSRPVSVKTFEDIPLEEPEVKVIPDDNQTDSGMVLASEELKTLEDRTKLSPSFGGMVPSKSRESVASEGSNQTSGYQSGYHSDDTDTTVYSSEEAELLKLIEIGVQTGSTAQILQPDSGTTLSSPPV
Description: Binding of fibronectin-based scaffold protein to cell-surface KDR and Flk-1 was analyzed simultaneously on VEGF-R2-expressing and control cells by flow cytometry. CHO-pcDNA3 cells (control) were released from their dishes with trypsin-EDTA, washed in Dulbecco's PBS without calcium and magnesium (D-PBS⁻; Invitrogen), and stained for 30 minutes at 37° C. with 1.5 μM CMTMR (5-(and-6)-(((4-chloromethyl)benzoyl)amino)-tetramethylrhodamine) (Molecular Probes). The cells were washed in D-PBS⁻ and incubated for a further 30 minutes at 37° C., and then resuspended in blocking buffer (D-PBS⁻/10% fetal bovine serum) on ice. CHO-KDR or CHO-Flk cells were treated identically except that CMTMR was omitted. […] For cells treated with an anti-KDR mouse monoclonal antibody (Accurate Chemical, Westbury, N.Y.) or an anti-flk-1 goat polyclonal antibody (R&D Systems), the anti-His₆ step was omitted, and antibody binding was detected with the species-appropriate Alexa Fluor 488 conjugated secondary antibody (Molecular Probes). Following staining, cells were resuspended in 200 μl/well D-PBS⁻/1% FBS/1 μg/ml 7-aminoactinomycin D (7-AAD; Molecular Probes) and analyzed by flow cytometry on a FACSCalibur (Becton Dickinson, San Jose, Calif.) equipped with a […] laser. […]

[2] = molecular target: T2, mouse vascular endothelial growth factor receptor-2 Fc chimera (Flk-1-Fc) (mouse, UniProt P35918 20-762); test: radioactive equilibrium binding assay, % of input at 1 nM Flk-1-Fc
T2 construct: Purchased from R&D Systems; also called mouse VEGF-R2; not shown: Fc portion of the purchased chimera is not described
T2 sequence (P35918 20-762, change not shown): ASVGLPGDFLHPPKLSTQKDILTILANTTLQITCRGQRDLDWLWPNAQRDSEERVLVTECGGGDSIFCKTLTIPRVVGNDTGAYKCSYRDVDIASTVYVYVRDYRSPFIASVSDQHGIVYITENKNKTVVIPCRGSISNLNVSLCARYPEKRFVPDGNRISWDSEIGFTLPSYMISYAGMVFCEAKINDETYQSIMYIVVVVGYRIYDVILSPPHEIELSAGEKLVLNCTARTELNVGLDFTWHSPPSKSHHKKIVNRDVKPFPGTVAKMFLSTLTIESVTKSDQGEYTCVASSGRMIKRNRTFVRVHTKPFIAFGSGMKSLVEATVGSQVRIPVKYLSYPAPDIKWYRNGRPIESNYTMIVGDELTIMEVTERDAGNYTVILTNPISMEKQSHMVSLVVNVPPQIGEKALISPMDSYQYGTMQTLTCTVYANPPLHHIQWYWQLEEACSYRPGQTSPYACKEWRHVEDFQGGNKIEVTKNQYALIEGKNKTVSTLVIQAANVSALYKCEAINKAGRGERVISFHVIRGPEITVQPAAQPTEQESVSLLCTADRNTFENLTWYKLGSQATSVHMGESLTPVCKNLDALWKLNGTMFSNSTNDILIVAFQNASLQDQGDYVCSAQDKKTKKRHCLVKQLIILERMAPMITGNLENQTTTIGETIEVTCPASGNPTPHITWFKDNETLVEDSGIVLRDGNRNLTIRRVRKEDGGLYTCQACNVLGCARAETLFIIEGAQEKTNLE

[3] = molecular target: T3, mouse vascular endothelial growth factor receptor-2 Fc chimera (Flk-1-Fc) (mouse, UniProt P35918 20-762); test: radioactive equilibrium binding, 1 nM Flk-1-Fc
T3 construct: Bought from R&D Systems; also called mouse VEGFR-2; Fc part of the bought chimera not given
Description: (§1) To prepare ³⁵S-labeled binding proteins for analysis, mRNA was prepared as described above for RNA-protein fusion production but the linker ligation step was omitted. The mRNA was expressed using rabbit reticulocyte lysate translation kit (Ambion) in the presence of ³⁵S-labeled Met at 30° C. for 1 hour. Expressed protein was purified on M2-agarose Flag beads (Sigma) as described above. This procedure produced the encoded protein without the nucleic acid tail. In a direct binding assay, VEGF-R2-Fc fusions in concentrations ranging from 0 to 200 nM were added to a constant concentration of the purified protein (0.2 or 0.5 nM) and incubated at 30° C. for 1 hour in buffer B. The receptor-binder complexes were captured using Protein A magnetic beads for another 10 minutes at room temperature using a Kingfisher™. The beads were washed with six reaction volumes of buffer B. The protein was eluted from the beads with 100 μL of 0.1 M KOH. 50 μL of the reaction mixture and elution were dried onto a LumaPlate-96 (Packard) and the amount of ³⁵S on the plate was measured using a TopCount NXT instrument (Packard). The amount of fibronectin-based scaffold protein bound to the target was estimated as a percent of radioactivity eluted from Protein A magnetic beads compare to radioactivity in the reaction mixture. Nonspecific binding of fibronectin-based scaffold proteins to the beads was determined by measuring binding in the absence of KDR-Fc and represented less than 1-2% of the input. Specific binding was obtained through subtraction of nonspecific binding from total binding. Data was analyzed using the GraphPad Prizm software (GraphPad Software, Inc, San Diego, Calif.), fitted using a one site, non-linear binding equation.
T3 sequence (P35918 20-762, change not shown): as above

[4] = molecular target: T4, human vascular endothelial growth factor receptor-2 Fc chimera (KDR-Fc) (human, UniProt P35968 20-764); test: radioactive equilibrium binding, 1 nM KDR-Fc
T4 construct: range 1-764; Bought from R&D Systems; limits 1-764 are stated for the selection target; also called human VEGFR-2; not shown: human IgG1 Fc
Description: as §1
T4 sequence (P35968 20-764 limits assumed, change not shown, form in doubt): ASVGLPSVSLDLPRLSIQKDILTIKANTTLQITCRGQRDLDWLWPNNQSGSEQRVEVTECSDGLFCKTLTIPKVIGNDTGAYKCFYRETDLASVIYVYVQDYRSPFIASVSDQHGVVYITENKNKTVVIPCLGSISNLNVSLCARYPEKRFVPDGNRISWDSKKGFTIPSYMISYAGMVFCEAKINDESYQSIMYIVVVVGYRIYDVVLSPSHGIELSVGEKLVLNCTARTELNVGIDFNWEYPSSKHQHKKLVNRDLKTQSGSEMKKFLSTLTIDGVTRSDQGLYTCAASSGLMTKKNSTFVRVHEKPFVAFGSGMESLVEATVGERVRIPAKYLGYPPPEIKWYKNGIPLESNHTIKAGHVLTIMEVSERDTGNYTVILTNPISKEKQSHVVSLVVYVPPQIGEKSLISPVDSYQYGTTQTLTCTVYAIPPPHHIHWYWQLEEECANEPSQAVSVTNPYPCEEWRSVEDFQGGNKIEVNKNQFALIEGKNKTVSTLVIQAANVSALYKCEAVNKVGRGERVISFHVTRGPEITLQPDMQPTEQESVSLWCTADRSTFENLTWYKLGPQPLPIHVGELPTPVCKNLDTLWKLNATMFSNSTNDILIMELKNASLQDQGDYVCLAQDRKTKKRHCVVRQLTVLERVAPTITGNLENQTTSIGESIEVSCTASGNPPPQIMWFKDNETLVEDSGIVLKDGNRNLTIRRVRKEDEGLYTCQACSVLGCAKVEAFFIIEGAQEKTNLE

[5] = molecular target: T5, human vascular endothelial growth factor receptor-2 Fc chimera (KDR-Fc) (human, UniProt P35968 20-764); test: radioactive equilibrium binding, 1 nM KDR-Fc
T5 construct: range 1-764; bought from R&D Systems; stated range 1-764 counts from the first residue of the precursor; also called human VEGF-R2-Fc; not shown: human IgG1 Fc
Description: as §1
T5 sequence (P35968 20-764 limits assumed, change not shown, form in doubt): as above

Binder	Binding to 1 nM Flk-1, % [3] [%]	Binding to 1 nM KDR, % [4] [%]	other results
B1	–	–	binding result [1]: no binding
B2	–	–	Binding to 1 nM FLK, % [2]: 10%
B3	2	37	–
B4	8	12	–
B5	40	31	–
B6	–	–	Binding to 1 nM KDR, % [5]: 21%
B7	–	–	Binding to 1 nM KDR, % [5]: 22%
